Test results from patent publication US20020155121A1.

Assays:
[1] = molecular target: CCR5 expressed on cells (L1.2/R5, Cf2Th-R5, U373/CD4/CCR5) (UniProt P51681); test: flow cytometry on L1.2/R5 cells
[2] = molecular target: CCR5 expressed on cells (L1.2/R5, Cf2Th-R5, U373/CD4/CCR5) (UniProt P51681); test: cell-based or functional assay
[3] = molecular target: CXCR4 expressed on cells (L1.2/X4, U373/CD4/CXCR4) (UniProt P61073); test: cell-based or functional assay
Sequence of UniProt P61073 (P61073 whole entry): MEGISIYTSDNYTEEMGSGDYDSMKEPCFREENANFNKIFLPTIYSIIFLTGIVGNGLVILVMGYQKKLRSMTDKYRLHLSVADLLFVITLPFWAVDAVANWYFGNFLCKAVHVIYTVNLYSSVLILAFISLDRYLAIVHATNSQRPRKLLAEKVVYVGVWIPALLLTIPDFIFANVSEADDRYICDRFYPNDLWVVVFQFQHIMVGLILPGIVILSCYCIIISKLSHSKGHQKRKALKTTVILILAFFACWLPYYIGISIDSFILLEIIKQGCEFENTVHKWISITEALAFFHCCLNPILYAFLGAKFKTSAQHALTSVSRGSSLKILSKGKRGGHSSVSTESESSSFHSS

Sequence of UniProt P51681 (P51681 whole entry): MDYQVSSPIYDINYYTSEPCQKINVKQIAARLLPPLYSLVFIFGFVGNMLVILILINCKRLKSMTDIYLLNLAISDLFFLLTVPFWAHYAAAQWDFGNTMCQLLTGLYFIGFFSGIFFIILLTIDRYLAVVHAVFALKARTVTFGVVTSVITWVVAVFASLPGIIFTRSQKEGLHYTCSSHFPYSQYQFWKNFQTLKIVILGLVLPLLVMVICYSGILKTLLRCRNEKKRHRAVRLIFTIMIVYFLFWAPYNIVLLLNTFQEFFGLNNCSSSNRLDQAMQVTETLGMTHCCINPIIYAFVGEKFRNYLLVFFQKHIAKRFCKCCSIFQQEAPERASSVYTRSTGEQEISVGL

## full-length single chain (FLSC) gp120-CD4 chimeric polypeptide (other; other documents disagree on this pair)
[1]
  concentration of maximal binding: 10 µg/mL

## gp120-CD4-IgG1 chimeric polypeptide (Fc fusion)
[2]
  ID90 (µg/mL), neutralization of 89.6 on U373/CD4/CCR5: 3.56 µg/mL
  ID90 (µg/mL), neutralization of ADA on U373/CD4/CCR5: 4.58 µg/mL
  ID90 (µg/mL), neutralization of BaL on U373/CD4/CCR5: 3.1 µg/mL
[3]
  ID90 (µg/mL), neutralization of 89.6 on U373/CD4/CXCR4: > 10 µg/mL
  ID90 (µg/mL), neutralization of 2005 on U373/CD4/CXCR4: > 10 µg/mL
  ID90 (µg/mL), neutralization of 2044 on U373/CD4/CXCR4: > 10 µg/mL

## truncated single chain (TcSC) gp120-CD4 chimeric polypeptide (other; other documents disagree on this pair)
[1]
  fold higher concentration than FLSC to approach saturation binding: 10 fold
